In patent US20240368233A1 (University of Washington, published 2024):

T1: LHD101 chainA
T1 construct: also called LHD101A
T1 chain: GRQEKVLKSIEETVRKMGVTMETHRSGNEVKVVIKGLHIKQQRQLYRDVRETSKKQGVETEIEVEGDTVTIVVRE

T2: 101B62
T2 construct: also called LHD101B62
T2 chain: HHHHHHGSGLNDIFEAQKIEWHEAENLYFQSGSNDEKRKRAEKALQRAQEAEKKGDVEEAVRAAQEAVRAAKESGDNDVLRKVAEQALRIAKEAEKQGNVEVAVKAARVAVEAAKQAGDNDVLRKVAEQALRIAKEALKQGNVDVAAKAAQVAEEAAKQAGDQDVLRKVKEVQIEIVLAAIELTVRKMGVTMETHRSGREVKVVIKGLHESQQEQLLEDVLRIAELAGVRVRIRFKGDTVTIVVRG

T3: 274B53
T3 construct: also called LHD274B DHR53 stop
T3 chain: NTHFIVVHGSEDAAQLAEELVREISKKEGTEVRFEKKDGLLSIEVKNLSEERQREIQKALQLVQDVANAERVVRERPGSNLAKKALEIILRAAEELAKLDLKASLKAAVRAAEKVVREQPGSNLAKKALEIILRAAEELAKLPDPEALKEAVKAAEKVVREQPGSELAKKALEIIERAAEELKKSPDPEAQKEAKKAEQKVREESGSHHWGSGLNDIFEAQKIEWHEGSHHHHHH

T4: DF202
T4 construct: Bivalent connector
T4 chain: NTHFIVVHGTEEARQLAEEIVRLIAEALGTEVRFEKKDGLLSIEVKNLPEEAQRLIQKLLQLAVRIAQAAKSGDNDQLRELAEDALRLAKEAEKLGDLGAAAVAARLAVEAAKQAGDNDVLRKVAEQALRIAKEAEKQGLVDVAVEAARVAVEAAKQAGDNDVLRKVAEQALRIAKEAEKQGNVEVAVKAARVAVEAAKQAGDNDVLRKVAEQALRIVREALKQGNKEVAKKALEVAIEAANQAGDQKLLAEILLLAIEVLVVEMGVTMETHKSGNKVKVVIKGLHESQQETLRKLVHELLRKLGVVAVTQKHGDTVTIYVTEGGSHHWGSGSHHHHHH

T5: LHD101 chainB
T5 construct: also called LHD101B
T5 chain: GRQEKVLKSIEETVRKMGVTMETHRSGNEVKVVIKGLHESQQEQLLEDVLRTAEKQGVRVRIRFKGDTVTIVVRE

B1: 101B14 (designed binder)
single chain, LHD101 chain B fused to DHR14: HHHHHHGSGLNDIFEAQKIEWHEAENLYFQSGSSEEVNERVKQLAEKAKEATDKEEVIEIVKELAELAKQSTDSELVNEIVKQLAEVAKEATDKELVIYIVKILAELAKQSTDSELVNEIVKQLAEVAKEATDKELVIYIVDILLKLAEQADDDELVEEIRKQLEEVAKEATDKELVEIIKAVIVLLVIISVVARMGVTMEIHKSGREVKVVIKGLHESQQEQLLEAVLRAAEEAGVRVRIRFKGDTVTIVVRG
notes: also called LHD101 B14

Columns and labels:
LHD101 chainA = target: T1, LHD101 chainA; test: BLI steady-state titration, biotinylated unfused LHD101A on a streptavidin sensor
From the text: FIG. 8A-E. Characterization LHD binding in vitro. A: Designed models heterodimers (top row). Middle row, SEC binding experiments performed on a Superdex™ 75 column. Bottom row, biolayer interferometry kinetic binding traces. […] C: Kinetic binding traces from BLI. Equilibrium responses were used to fit equilibrium binding curves D: Equilibrium binding curves of LHDs from biolayer interferometry binding assays with data from C. […] Biotinylated unfused protomers were immobilized on streptavidin coated biosensors.
Biolayer interferometry experiments were performed on an OctetRED96 BLI system (ForteBio, Menlo Park, CA). Streptavidin coated biosensors were first equilibrated for at least 10 minutes in Octet buffer (10 mM HEPES pH 7.4, 150 mM NaCl, 3 mM EDTA, 0.05% Surfactant P20) supplemented with 1 mg/ml Bovine Serum Albumin (SigmaAldrich). Enzymatically biotinylated designs were immobilized onto the biosensors by dipping the biosensors into a solution with 10-50 nM protein for 30-120 s. This was followed by dipping in fresh octet buffer to establish a baseline for 120 s. Titration experiments were performed at 25° C. while rotating at 1,000 r.p.m. […]

[1] = target: the molecule itself; test: SEC titration of the protomer alone at several injection concentrations (Superdex 200, normalised A230); self-association
101B62 = target: T2, 101B62; test: SEC binding assay (Superdex 200, normalised A230) of A, B and the mixture AB
Method: (§1) Complexes and individual components were diluted in 20 mM Tris pH 8.0, 100 mM NaCl. After o/n equilibration of the mixtures at room temperature or 4 degrees C., 500 ul of sample was injected onto a Superdex™ 200 10/300 increase GL (dimers, linear assemblies) or Superose™ 6 increase 10/300 GL (symmetric assemblies) (all columns from GE healthcare) using the absorbance at 230 nm or 473 nm (for GFP tagged components) as read-out. Dimers were mixed at monomer concentrations of 5 μM or higher. Trimer and ABCD tetramer mixtures contained 5 μM of the bivalent connector, and 7.5 μM of each terminal cap (lower absolute concentrations with the same ratios were used for some trimers). ABCA tetramer mixtures contained 5 μM per bivalent connector and 15 μM terminal cap. The hexamer mixture contained 3 μM of components C and D, 3.6 μM of B and E, and 4.4 μM of A and F. The branched assembly shown in FIG. 4A contained 2.8 μM of the trivalent connector and 4 μM of each cap. For the exchange experiment shown in FIG. 5A, the ABC trimer was preincubated at concentrations of 6 μM B and 9 μM each of A and C. C′ was then added to reach a final concentration of 2 μM B, 3 μM each of A and C, and 6 μM C′.

101B14 = target: B1; test: as above
Method: as §1

274B53 = target: T3, 274B53; test: as above
Method: as §1

DF202 = target: T4, DF202; test: SEC of mixed components; trimer listed in Table 6
Method: as §1

LHD101 chainB = target: T5, LHD101 chainB; test: BLI, dissociation rate constant (kdis)
Method: Biolayer interferometry experiments were performed on an OctetRED96 BLI system (ForteBio, Menlo Park, CA). Streptavidin coated biosensors were first equilibrated for at least 10 minutes in Octet buffer (10 mM HEPES pH 7.4, 150 mM NaCl, 3 mM EDTA, 0.05% Surfactant P20) supplemented with 1 mg/ml Bovine Serum Albumin (SigmaAldrich). Enzymatically biotinylated designs were immobilized onto the biosensors by dipping the biosensors into a solution with 10-50 nM protein for 30-120 s. This was followed by dipping in fresh octet buffer to establish a baseline for 120 s. Titration experiments were performed at 25° C. while rotating at 1,000 r.p.m. Association of designs was allowed by dipping biosensors in solutions containing designed protein diluted in octet buffer until equilibrium was approached followed by dissociation by dipping the biosensors into fresh buffer solution in order to monitor the dissociation kinetics. Steady-state and global kinetic fits were performed using the manufacturer's software (Data Analysis 9.1) assuming a 1:1 binding model.

| Binder | binding result [1] | koff (LHD101 chainB) [s⁻¹] | other results |
| --- | --- | --- | --- |
| 101B4 (designed binder, also called LHD101B4) HHHHHHGSGLNDIFEAQKIEWHEAENLYFQSGSYEDECEEKARRVAEKVERLKRSGTSEDEIAEEVAREISEVIRTLKESGSSYEVICECVARIVAEIVEALKRSGTSEDEIAEIVARVISEVIRTLKESGSSYEVICECVARIVAEIVEALKRSGTSEEEIAEIVARVIQEVIRTLKESGSSYEVIRECLRRILEEVIEALKRSGVDSSEIVLIIIKIAVAVMGVTMEEHRSGNEVKVVIKGLHESQQEELLELVLRAAELAGVRVRIRFKGDTVTIVVRG | – | – | binding result (LHD101 chainA): binds |
| 29B53 (designed binder, also called LHD29B53) SSIFLLSNVDESARQLAEELVREISKKEGTEVRFEKDDGFLTIEVKNLSEERLREIARALQLIVDVANAERVVRERPGSNLAKKALEIILRAAEELAKLPLKASLKAAVIAAELVVREQPGSNLAKKALEIILRAAEELAKLPDPEALKEAVKAAEKVVREQPGSELAKKALEIIERAAEELKKSPDPEAQKEAKKAEQKVREERPGSSGSHHHHHH | binds | – | – |
| 202B64 (designed binder, also called LHD202 B64) single chain, LHD202 chain B fused to DHR64: GSSVEFHIVNIDEDVAQLIELAVKLISKEEGTEVRFEKRDGELTIEVKNLHEKDLQLILELIEALLLIARAIELLRQAKEKGSEEDLEKALRTAEESARRLKKVLEKAEKLGNLGVALAAVAGVVLVAELLLRIAKESGSEEALERALRVAEEAARLAKRVLELAEKLGDAEAALLAVELVVRVAELLLRIAKESGSEEALERALRVAEEAARLAKRVLELAEKQGDAEVARRAVELVKRVAELLERIARESGSEEAKERAERVREEARELQERVKELREREGDGSHHWGSGLNDIFEAQKIEWHEGSHHHHHH | binds | – | – |
| 278B (designed binder, also called LHD278 B; LHD278 chainB) GGSTVTFDITNIDWKSAELIMLAVYDIAQQEGTDVTFSFKEGELQITVKNLHEKWKRLIEMLIEACRRAQDPDPESLKEAVRIAEELVRLHPGNPLARAALKVILTAAEELAKLPDPEALKEAVKAAEKVVREQPGSNLAKKALEIILRAAEELAKLPDPEALKEAVKAAEKVVREQPGSELAKKALEIIERAAEELKKSPDPEAQKEAKKAEQKVREERPGSGGSGSHHWGSGSHHHHHH | binds | – | – |
| LHD101 A10 (designed binder) single chain, LHD101 chain A fused to DHR10: HHHHHHGSGLNDIFEAQKIEWHEAENLYFQSGSSSEKEELRERLVKIVVENAKRKGDDTEEAREAAREAFELVREAAERAGIDSSEVLELAIRLIKEVVENAQREGYDISEAARAAAEAFKRVAEAAKRAGITSSEVLELAIILIKLVVELAQRKGYDISEAARAAAELFKRLAEALKRAGKTSERALALLILLLAIEILVRDMGVTMETHPSGNEVKVVIKGLHIKQQRQLYRLVREAAKLLGVEVEIEVEGDTVTIVVRGGS | – | – | binding result (101B62): binds; binding result (101B14): binds |
| LHD274 A76 (designed binder) single chain, LHD274 chain A fused to DHR76: GSTTNFHLINGSEEARQVIEEIVEIIARLAGTEVHFEKSDGTLEIRVKNLHEELERLIKELIELALLLQLAKKEAIEEAKKQGNPELVEWVARAAEVVKEVLRVAAEAAGAGNPDLAKAAAELARAVIEAIEEAVKQGNAELVEWVARAAKVAAEVIKVAIQAEKEGNRDLFRAALELVRAVIEAIEEAVKQGNAELVERVARLAKKAAELIKRAIRAEKEGNRDERREALERVREVIERIEELVRQGNGSHHWGSGLNDIFEAQKIEWHEGSHHHHHH | – | – | binding result (274B53): binds |
| B1 | no binding (tested: 114.0 uM) | – | – |
| 202B57 (designed binder) GSSVEFHIVNISEKAAQIIERAVRAISKELGTEVRFEKRDGELTIEVKNLHERRLQEILLLIEAVKLLLLALKAVKEDPSTDALRAVLEAVRFASEVAKRVENPEAVAVLAELVIELALEAVKEDPSTDALRAVLEAVRLASEVAKRVTDADKALKIAKLVIELALEAVKEDPSEEAKRAVEEAKRLAEEVSKRVTDPELSEKIRQLVKELEEEAQKEDPSGSHHWGSGLNDIFEAQKIEWHEGSHHHHHH | – | – | binding result (DF202): binds |
| LHD101A V69Q (designed binder) GRQEKVLKSIEETVRKMGVTMETHRSGNEVKVVIKGLHIKQQRQLYRDVRETSKKQGVETEIEVEGDTQTIVVRE | – | 0.00653 | – |
| LHD101A_Q42M (designed binder) GRQEKVLKSIEETVRKMGVTMETHRSGNEVKVVIKGLHIKQMRQLYRDVRETSKKQGVETEIEVEGDTVTIVVRE | – | 0.00941 | – |
| LHD101A_R43V (designed binder) GRQEKVLKSIEETVRKMGVTMETHRSGNEVKVVIKGLHIKQQVQLYRDVRETSKKQGVETEIEVEGDTVTIVVRE | – | 0.0113 | – |
| LHD101A_T70W (designed binder) GRQEKVLKSIEETVRKMGVTMETHRSGNEVKVVIKGLHIKQQRQLYRDVRETSKKQGVETEIEVEGDTVWIVVRE | – | 0.0102 | – |
